From article PMC4139162

Target: KcsA potassium channel, L90C, chymotrypsin-truncated (UniProt P0A334)
Test: crystal structure

stoichiometry N: 4
Substance: KcsA potassium channel, L90C, chymotrypsin-truncated (from UniProt P0A334 1-160) (natural protein)
